“Also recorded” adds a separate entry of the source.
B1: BAD-GST: recombinant human BAD with N-terminal hexahistidine tag and C-terminal GST fusion, TEV consensus sequence between (protein)
chain: MFQIPEFEPSEQEDSSSAERGLGPSPAGDGPSGSGKHHRQAPGLLWDASHQQEQPTSSSHHGGAGAVEIRSRHSSYPAGTEDDEGMGEEPSPFRGRSRSAPPNLWAAQRYGRELRRMSDEFVDSFKKGLPRPKSAGTATQMRQSSSWTRVFQSWWDRNLGRGSSAPSQ
modifications: left off: His6, N-terminal, state not stated | GST, C-terminal, kept

Columns and labels:
GCK = biological target: T1, GCK (Homo sapiens, UniProt P35557); assay: GCK activity, microplate G6PDH-linked assay as described by Szlyk et al. (37°C); format: biochemical; details: GCK 7.5 nM; for Effect on GCK Vmax: either assay (routine and Szlyk microplate), peptide 5 μM, 37°C in microplate assay
T1 construct: hexahistidine (N); made in house; host or cells: glucokinase auxotroph BM5340(DE3)
T1 sequence (P35557 1-465): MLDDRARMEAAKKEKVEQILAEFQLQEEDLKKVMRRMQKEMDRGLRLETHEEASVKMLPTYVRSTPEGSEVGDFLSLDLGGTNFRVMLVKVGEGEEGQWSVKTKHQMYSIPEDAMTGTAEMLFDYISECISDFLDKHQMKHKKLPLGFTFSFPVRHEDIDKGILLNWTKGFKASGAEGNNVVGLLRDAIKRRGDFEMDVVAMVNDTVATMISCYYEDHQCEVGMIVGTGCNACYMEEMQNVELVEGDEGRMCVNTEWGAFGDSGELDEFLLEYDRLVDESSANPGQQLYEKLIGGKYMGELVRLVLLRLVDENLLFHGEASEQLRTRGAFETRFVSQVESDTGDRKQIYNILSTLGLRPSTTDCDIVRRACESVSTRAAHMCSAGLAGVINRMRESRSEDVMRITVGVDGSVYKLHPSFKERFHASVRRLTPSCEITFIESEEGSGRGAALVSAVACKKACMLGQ
Procedure: Steady state kinetics were also performed as described by Szlyk, et al.[13]. Briefly, G6PDH-linked assays were performed in clear 96-well plates at 37°C with a SpectraMax M5 microplate reader (Molecular Devices) recording absorbance at 340 nm every 30 s. Reaction mixtures contained GCK (7.5 nM), HEPES (100 mM, pH 7.4), KCl (150 mM), MgCl2(6 mM), DTT (1 mM), NAD (1 mM), BSA (0.05%), G6PDH (2.5 U), glucose (0.5–100 mM), and ATP (5 mM) in the presence or absence of BAD-GST S118D variant (5 μM) or phosphorylated BAD BH3 peptide (5 μM) in a final volume of 100 μL.
GCK (7.5 nM) was assayed in the presence of A. S118D BADGST (5 μM) or B. pBH3 (5 μM) in a 96 well plate using a microplate reader. Buffer conditions were as follows: Ref [13]: 100 mM Hepes, pH 7.4; 150 mM KCl; 1 mM NAD+; 0.05% BSA; 6 mM MgCl2; 1 mM DTT; 2.5 U G6PDH; 5 mM ATP. Optimal GCK conditions: 100 mM Hepes, pH 7.4; 150 mM KCl; 1 mM NADP+; 6 mM MgCl2; 10 mM DTT; 1.5 U G6PDH; 5 mM ATP. (EPS) Click here for additional data file.

human pancreatic GCK = biological target: T2, human pancreatic GCK (Homo sapiens, UniProt P35557); assay: Size-exclusion chromatography of mixtures with GCK; format: binding; details: mixtures across a range of protein concentrations; BAD buffer pH 8.5, 4°C
T2 construct: hexahistidine (N); made in house; host or cells: glucokinase auxotroph BM5340(DE3)
T2 sequence (P35557 1-465): T1 sequence (P35557 1-465)
Procedure: (§1) Size-exclusion chromatography was performed on a HiPrep 16/60 Sephacryl S-200 HR column (GE Healthcare) connected to a Bio-Rad DuoFlow FPLC. The column was calibrated with thyroglobulin (669 kDa), γ-globulin (158 kDa), ovalbumin (43 kDa), myoglobin (17 kDa), and vitamin B12 (1.35 kDa). All proteins were analyzed in BAD buffer (0.1 M Tris, 0.1 M KCl, 0.5 M arginine, 2.5 mM CHAPS, 5 mM TCEP, 10% glycerol, pH 8.5) at a flow rate of 0.02 mL/min at 4°C. Protein samples were concentrated to 800 μL and filtered through 0.2 μm filters before injection onto the size-exclusion column. For complex formation, equimolar mixtures of proteins were added to BAD buffer in a final volume of 800 μL and incubated on ice 30 min prior to injection onto the column.

glucokinase (GCK) = assay: Chemical cross-linking (dimethyl pimelimidate) with GCK; format: binding, human; details: DMP, 50-fold molar excess, room temperature 1 h; 1:1 mixture, 40 μM protein; SDS-PAGE
Procedure: Protein samples were cross-linked with dimethyl pimelimidate (DMP). Aqueous stocks of cross-linkers were added to protein samples in a 50-fold molar excess and incubated at room temperature 1 h. Mixtures contained 20 μM protein (GCK or BAD) or 40 μM protein (1:1 mixture of glucokinase and BAD) in BAD buffer (0.1 M Tris, 0.1 M KCl, 0.5 M arginine, 2.5 mM CHAPS, 5 mM TCEP, 10% glycerol, pH 8.5). Reactions were immediately separated on SDS-PAGE and visualized with Coomassie blue staining.

Bcl-xL [1] = biological target: T3, Bcl-xL (Homo sapiens, UniProt Q07817, DEL45-84); assay: Size-exclusion chromatography of 1:1 mixture with Bcl-xL; format: binding; details: 1:1 mixture of purified Bcl-xL and BAD-GST; BAD buffer pH 8.5, 4°C
T3 construct: made in house
Procedure: as §1

Bcl-xL [2] = biological target: T3, Bcl-xL; assay: Analytical ultracentrifugation sedimentation velocity of 1:1 mixture BAD-GST and Bcl-xL; format: binding; details: 1:1 mixture of BAD-GST and Bcl-xL, 20°C, 50,000 x g, BAD buffer pH 8.5
Procedure: Sedimentation velocity experiments were conducted with an Optima XLI Ultracentrifuge (Beckman Coulter) using a four-hole rotor with three 420 μL samples in standard double-sector Epon centerpieces equipped with sapphire windows. Absorbance and interference data were collected simultaneously. Size-exclusion purified proteins were concentrated to OD280 nm = 0.3–1.0 prior to centrifugation. For complex formation, proteins were mixed in a 1:1 molar ratio in BAD buffer (0.1 M Tris, 0.1 M KCl, 0.5 M arginine, 2.5 mM CHAPS, 5 mM TCEP, 10% glycerol, pH 8.5) and incubated on ice 30 min prior to the start of the experiment. Experiments were carried out at 20°C and 50,000 x g. Data were analyzed with Ultrascan III software using a minimum of 70 scans per sample for analysis. Van Holde-Weischet analysis was performed to obtain S20,W values.

[3] = Aggregation in refolding buffers (spin-filter assay); format: physicochemical; details: CHAPS (2.5 mM) and arginine (0.5 M)
Procedure: To determine buffer conditions for BAD-GST refolding, we made use of a spin-filter assay developed by Bondos and Bicknell. Purified protein was collected after size-exclusion chromatography and diluted into test buffers containing various stabilizers and detergents, including Triton-X (0.2%), CHAPS (1.25–6.0 mM), arginine (0.1–0.6 M), glycerol (20%) or urea (1.5 M). After overnight incubation at 4°C, diluted protein was filtered across a 100,000 MWCO microconcentrator (Amicon Ultra 0.5, EMD Millipore) at 14,000 x g. Concentrate was considered aggregated protein, while flow through was considered non-aggregated protein. Concentrate and flow through were resuspended to equal volumes and analyzed via SDS-PAGE; protein was visualized with SYPRO Ruby stain on a fluorescence imaging scanner. ImageJ software was used to measure ratios of non-aggregated to aggregated protein [26].

T3 sequence (Q07817 with tags, fused parts or gaps DEL45-84): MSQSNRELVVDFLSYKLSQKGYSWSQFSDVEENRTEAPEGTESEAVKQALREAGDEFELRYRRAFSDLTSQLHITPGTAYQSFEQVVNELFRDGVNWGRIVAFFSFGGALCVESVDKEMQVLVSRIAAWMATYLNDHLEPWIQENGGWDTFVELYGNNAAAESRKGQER

| Molecule | Effect on GCK kinetics under Szlyk et al. buffer conditions (GCK; S118D BADGST 5 μM, or pBH3 5 μM, 96 well plate, S2 Fig) | Effect on GCK Vmax (GCK; listed as phosphorylated BAD BH3 peptide) | Effect on GCK Vmax (GCK; listed as phosphorylated BH3 peptide) | Complex with GCK by size-exclusion chromatography (human pancreatic GCK) | Complex with GCK by chemical cross-linking (glucokinase (GCK)) | Complex formation with Bcl-xL by size-exclusion chromatography (Bcl-xL [1]) | Sedimentation coefficient (Bcl-xL [2]) | Aggregation, effect of refolding additives [3] |
| --- | --- | --- | --- | --- | --- | --- | --- | --- |
| NLWAAQRYGRELRRM(p)SDKFVD [pBH3, 21-residue phosphorylated peptide containing the BH3 domain of BAD] | did not increase BAD’s effects on GCK kinetics | no statistically significant difference in the GCK Vmax value | lack of an increase in the GCK Vmax value |  |  |  |  |  |
| B1 |  |  |  | No evidence of a higher molecular weight complex is observed; also recorded: provides no evidence of complex formation | does not support the formation of a BAD-GST:GCK complex | three peaks corresponding to monomeric Bcl-xL, the BAD-GST dimer, and the BAD-GST:Bcl-xL complex; also recorded: confirms formation of a higher molecular weight complex between BAD-GST and Bcl-xL | 2.1 | essential to prevent aggregation of recombinant BAD |
